These results are taken from publication PMC10654211, “GTPBP8 is required for mitoribosomal biogenesis and mitochondrial translation” (Cellular and Molecular Life Sciences: CMLS, 2023).

Substrate in this data set: Nc1nc2c(ncn2[C@@H]2O[C@H](COP(=O)(O)OP(=O)(O)OP(=O)(O)O)[C@@H](O)[C@H]2O)c(=O)[nH]1
Briefly: purified protein. To be noted: 12 μM GTPBP8, 0-3 mM GTP, kit reaction buffer, 25 °C, intrinsic GTPase activity. It is filed as biochemical, Homo sapiens.

B1: GTPBP8 (GTP-binding protein 8) (Homo sapiens) (protein)
chain: MAAPGLRLGAGRLFEMPAVLERLSRYNSTSQAFAEVLRLPKQQLRKLLYPLQEVERFLAPYGRQDLHLRIFDPSPEDIARADNIFTATERNRIDYVSSAVRIDHAPDLPRPEVCFIGRSNVGKSSLIKALFSLAPEVEVRVSKKPGHTKKMNFFKVGKHFTVVDMPGYGFRAPEDFVDMVETYLKERRNLKRTFLLVDSVVGIQKTDNIAIEMCEEFALPYVIVLTKIDKSSKGHLLKQVLQIQKFVNMKTQGCFPQLFPVSAVTFSGIHLLRCFIASVTGSLD
notes: His-tagged, purified; full-length human CDS in pENTR221, GTPBP8 cloned into pHAT (and pGAT2); full-length 284 residues
Consider B1, for which the Michaelis constant (Km) – broadly, the substrate concentration at which the rate is half of its maximum – was determined as 200 ± 40 µM and the catalytic constant (kcat) (commonly the maximal rate divided by the concentration of active sites) was 0.000132 ± 5.5e-05 s⁻¹.
